# Measured values reported in article PMC4695338.
# What was measured:
# Assay in all cases: EMSA
# Conditions in all cases: EMSA: fluorescein-12 ssRNA incubated with MBP-tagged proteins, agarose gel; buffer, salt, pH and temperature not in the material
# [1] = tested on: Pdd1p WT_FL (Tetrahymena (species not given))
# [2] = tested on: Pdd1p MIM22+Ins6K_FL (Tetrahymena (species not given))
# [3] = tested on: Pdd1p WT_HNG1 (hinge region 1) (Tetrahymena (species not given))
# [4] = tested on: Pdd1p MIM14_FL (Tetrahymena (species not given))
# [5] = tested on: Pdd1p WT_HNG2 (hinge region 2) (Tetrahymena (species not given))
substance,measurement,setting,value
EGFP ssRNA,Kd,[1],65 nM
same,Kd,[2],347 nM
same,Kd,[3],130 nM
same,Kd,[4],340 nM
same,Kd,[5],> 630 nM
